Assay results taken from patent US20230242902A1, “A HIGHLY ERROR-PRONE […] R[…] FOR TARGETED CONTINUOUS EVOLUTION IN VIVO” (The Regents of the University of California, priority 2017, published 2023).
Numbering of substitutions follows the chain as printed. Names may count otherwise.

B1: D669G, T698M: TP-DNAP1 variant (protein)
chain: MDYKDKALNDLRNVYADFDSLPLDFRQILIKDRATLLQKEDVEKKILERQEDAKKYAEYLKQSEIPERISLPNIKRHKGVSISFEETSEDMVLEPRPFIFDGLNIRCFRRETIFSLKNKILNMVKESSSFKNVSRQSVSFMYFKIFNKGKVIASTKSVNIYEDKIDERLEDLCNNFDDVLKKIIDVTYGYESLFVSETYSYVIFYAKSIYFPQPRCVNNWGNNIPNILTFDSFKLFTANKNNVSCIKQCSRFLWQKDFNTLEEMIEYKNGNICIVTPQLHINDVRDIKSFNDIRLYSESPIKTFSVIDNTITYLFYFKEHLGVIFNITKSRHDRRVTKFSPLSKFSDVKNITVCFDIESYFDPEKESNQVNIPFICCASIIYNKVIGNIVDFEGRDCVAQMIEYVVDICGELNISSVELIAHNGGGYDFHYILSSMYNPAAIKNILIRNNSFISFNFAHDGVKFSVKDSYSFLLCSLANASKAFLNEETFKKTDFPHHDLKTADDLYKVYKEWSSVNTEINHVVEKEKLLITSEHIVNFTKNDKSKTLIEWSKDYCRNDVLVLSKVWLEFKNAVEDIFNCELVDQTMTLAGLSYKLFQANMPFDVELRHPNKEDYFNMREALIGGRCISVNGIYKDVLCLDVKSLYPASMAFYDQPYGSFKRVSSRPKGELGIYYVRVTPNRNNKSNFFPIRSHNKIMYNNFEESTYIAWYTNVDIDIGLSEGHNIEYIPFDSYGNIGYSWSKKGKIFEKYIKDVLYKLKIKYEKQNNKVKRNVIKIIMNSLWGKFAQKWVNFEYFIKSEDDIDFESEEAYKIWDTDFMLIKKIKESTYSSKPIQNGVFTLSWARYHMKSIWDAGAKEGAECIYSDTDSIFVHKEHFKKNAKFMLNGLKVPIIGSEVGQLELECEFDKLLCAGKKQYMGFYTYFQDGKPCIKEKKRFKGIPSNYIIPELYAHLLSGADKEAKIQFLKFRREWGSVKGYIENKTVKAT
B2: I673V, E703D: TP-DNAP1 variant (protein)
chain: B1 chain with G669D, I673V, M698T, E703D
B3: R692C: TP-DNAP1 variant (protein)
chain: B1 chain with G669D, R692C, M698T
B4: R677L: TP-DNAP1 variant (protein)
chain: B1 chain with G669D, R677L, M698T
B5: R692K: TP-DNAP1 variant (protein)
chain: B1 chain with G669D, R692K, M698T
B6: Y675H: TP-DNAP1 variant (protein)
chain: B1 chain with G669D, Y675H, M698T
B7: T679A: TP-DNAP1 variant (protein)
chain: B1 chain with G669D, T679A, M698T
B8: R677S: TP-DNAP1 variant (protein)
chain: B1 chain with G669D, R677S, M698T
B9: R682D: TP-DNAP1 variant (protein)
chain: B1 chain with G669D, R682D, M698T
B10: E298R: TP-DNAP1 variant (protein)
chain: B1 chain with E298R, G669D, M698T
B11: R677Q: TP-DNAP1 variant (protein)
chain: B1 chain with G669D, R677Q, M698T
B12: N684D: TP-DNAP1 variant (protein)
chain: B1 chain with G669D, N684D, M698T
B13: T679R: TP-DNAP1 variant (protein)
chain: B1 chain with G669D, T679R, M698T
B14: R677M: TP-DNAP1 variant (protein)
chain: B1 chain with G669D, R677M, M698T
B15: R692W: TP-DNAP1 variant (protein)
chain: B1 chain with G669D, R692W, M698T
B16: Y675L: TP-DNAP1 variant (protein)
chain: B1 chain with G669D, Y675L, M698T
B17: T679E: TP-DNAP1 variant (protein)
chain: B1 chain with G669D, T679E, M698T
B18: R692F, T706E: TP-DNAP1 variant (protein)
chain: B1 chain with G669D, R692F, M698T, T706E
B19: N681F: TP-DNAP1 variant (protein)
chain: B1 chain with G669D, N681F, M698T
B20: R682P: TP-DNAP1 variant (protein)
chain: B1 chain with G669D, R682P, M698T
B21: T679Q: TP-DNAP1 variant (protein)
chain: B1 chain with G669D, T679Q, M698T
B22: N683H: TP-DNAP1 variant (protein)
chain: B1 chain with G669D, N683H, M698T
B23: R692F: TP-DNAP1 variant (protein)
chain: B1 chain with G669D, R692F, M698T
B24: N683T: TP-DNAP1 variant (protein)
chain: B1 chain with G669D, N683T, M698T
B25: R692I: TP-DNAP1 variant (protein)
chain: B1 chain with G669D, R692I, M698T
B26: Y296K: TP-DNAP1 variant (protein)
chain: B1 chain with Y296K, G669D, M698T
B27: N681Q, R692I: TP-DNAP1 variant (protein)
chain: B1 chain with G669D, N681Q, R692I, M698T
B28: L295Q: TP-DNAP1 variant (protein)
chain: B1 chain with L295Q, G669D, M698T
B29: N687G: TP-DNAP1 variant (protein)
chain: B1 chain with G669D, N687G, M698T
B30: E670M, S693G: TP-DNAP1 variant (protein)
chain: B1 chain with G669D, E670M, S693G, M698T
B31: N683A: TP-DNAP1 variant (protein)
chain: B1 chain with G669D, N683A, M698T

System: p1
Assay: p1 copy number by p1-encoded mKate2 fluorescence
Type: cell-based, S. cerevisiae
Conditions: OR-Y24, measured in triplicate
Protocol: A calibration curve was established to correlate p1 copy number, determined via quantitative PCR (qPCR), with fluorescence of p1-encoded mKate2 (Table 1). Five TP-DNAP1 variants representing a wide range of copy numbers were transformed into ORY24 and passaged until w.t. p1 was displaced. The five OR-Y24 strains were grown to saturation, diluted 1:10,000 to mimic p1 fluctuation tests, and grown in triplicate 100 μL cultures and duplicate 40 mL cultures. 100 μL saturated cultures were subject to fluorescence measurement of mKate2 (ex/em=561 nm/620 nm, bandwidth=15 nm) on a flow cytometer (Invitrogen Attune NxT). Whole-cell DNA extracts were prepared from 40 mL cultures and used as templates for qPCR measurement of p1-encoded leu2 (Q180*), as described previously (Ravikumar et al., 2014). p1-encoded LEU2 was PCR amplified with qPCR-Leu2F and qPCR Leu2R; and genomic LEU3 was PCR amplified with qPCR-Leu3F and qPCR-Leu3R using SyBR Green (Fisher Scientific) master mix.
To assay p1 copy number for large-scale p1 fluctuation tests, additional replicates of OR-Y24 strains were grown from the 1:10,000 dilution in triplicate and saturated cultures were subject to fluorescence measurement via flow cytometry. Fluorescence measurements were converted to copy number with the linear calibration curve.
To assay relative p1 copy number for small-scale p1 fluctuation tests, an additional 200 μL culture of OR-Y24 strains were grown from the 1:10,000 dilution. 200 μL saturated cultures were subject to an OD600 measurement and fluorescence measurement of mKate2 (ex/em=588 nm/633 nm), using a microplate reader (TECAN Infinite M200 PRO). A linear relationship was assumed between p1 copy number and OD600-normalized mKate2 fluorescence. Copy numbers were calculated from normalization to a w.t. TP-DNAP1 control.
For a few large-scale p1 fluctuation tests, p1 copy number was assayed by the method of small scale p1 fluctuation tests (i.e. microplate reader measurement). For these experiments, mutant TP-DNAP1 p1 copy numbers were calculated by normalization to a w.t. TP-DNAP1 control. The copy number of this control was assumed to be the average w.t. TP-DNAP1 copy number from all large-scale p1 fluctuation tests that used flow cytometry measurements.
TP-DNAP1 plasmids were isolated from these strains and subject to Sanger sequencing. 210 unique variants were identified and the corresponding plasmids were re-transformed into OR-Y24. Transformed strains were passaged in SC-UH until w.t. p1 was displaced, and subject to p1 copy number measurement in triplicate. Four high copy variants were directly subject to qPCR measurements for validation. To test the suppressor activity of the G410H mutation, which yields increased p1 copy number, this amino acid change was added to several low-activity TP-DNAP1 variants. p1 copy number was similarly assayed for these strains.

| Molecule | Mean fold-increase over w.t. (p1 copy number) |
| --- | --- |
| B1 | 1.65 fold |
| B2 | 1.88 fold |
| B3 | 1.69 fold |
| B4 | 1.68 fold |
| B5 | 1.88 fold |
| B6 | 2.14 fold |
| B7 | 1.82 fold |
| B8 | 1.87 fold |
| B9 | 1.74 fold |
| B10 | 2.6 fold |
| B11 | 1.84 fold |
| B12 | 1.54 fold |
| B13 | 1.73 fold |
| B14 | 1.97 fold |
| B15 | 1.97 fold |
| B16 | 1.96 fold |

| Molecule | Mean fold-increase over w.t. (p1 copy number) |
| --- | --- |
| B17 | 1.7 fold |
| B18 | 1.89 fold |
| B19 | 1.75 fold |
| B20 | 1.75 fold |
| B21 | 1.71 fold |
| B22 | 1.68 fold |
| B23 | 2.6 fold |
| B24 | 1.57 fold |
| B25 | 1.99 fold |
| B26 | 2.28 fold |
| B27 | 1.74 fold |
| B28 | 2.48 fold |
| B29 | 1.65 fold |
| B30 | 1.55 fold |
| B31 | 1.93 fold |
